Results on 1 molecule are retold here after publication PMC8069203, “Highly Sensitive Electrochemical Aptasensor for Detecting the VEGF165 Tumor Marker with PANI/CNT Nanocomposites”.

The data set has as its target VEGF165 (UniProt P15692-4 27-191). Nature of the data set: electrochemical aptasensor; PANI/CNT electrode; linear 0.5 pg/mL to 1 ug/mL, LOD 0.4 pg/mL (not a Kd); PBS rinsing, ferri/ferrocyanide redox probe; aptamer immobilized on PANI/CNT screen-printed carbon electrode; pH, salt and temperature not given in the material. The note with it: protein: commercial; chain copies: 2.

Chain of VEGF165 (P15692 other isoform, or with tags, fused parts or gaps): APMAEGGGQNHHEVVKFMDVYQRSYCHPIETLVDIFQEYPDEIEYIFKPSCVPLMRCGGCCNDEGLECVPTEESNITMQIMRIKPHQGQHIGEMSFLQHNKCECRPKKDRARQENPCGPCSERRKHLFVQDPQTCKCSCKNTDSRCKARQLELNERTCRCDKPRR

For AUGCAGUUUGAGAAGUCGCGCAU (structured_RNA, 5'-NH2, coupled by amide bond to PANI/CNT carboxyl groups (DMT-MM)) [anti-VEGF165 RNA aptamer], the binding result was “binds”.
